We go through 20 molecules from publication PMC12014896 (2025).

To fix the notation:
B1: COVIC-265 (antibody, V domains shown)
VH: QVQLVESGGGLVQPGGSLRLSCTVSGIDLSSYAMGWVRQAPGKGLEYIGIISGSGSTDYANWAKGRFTISRDNSKNTLYLQMNSLRAEDTAVYYCARAGYGVYGYAKYYGMDPWGQGTLVTVSS
VL: DIQMTQSPSSLSASVGDRVTITCKASEDIHYGLNWYQQKPGKAPKLLIYGATTLESGVPSRFSGSGSGTDFTLTISSLQPEDFATYYCQQGYSTPLTFGGGTKVEIK
B2: COVIC-32 (antibody, V domains shown)
VH: QVQLLESGGGLVQPGGSLRLSCAASGFTFSSYAMSWVRQAPGKGLEWASAISGSGGSTYYADSVEGRFTISRDNSKNTLYLQMNSLRAEDTAVYYCAKDTGYCGDDCYIKLIRGGPDYWGQGTLVTVSS
VL: DIVMTQSPLSLPVTLGQPASISCRSSQSLVYSDGNTFLNWFQQRPGQSPRRLIYQVSNRDSGVPDRFSGSGSGTDFTLKISRVEAEDVGVYYCMQGTHWPRTFGQGTKLEIK
B3: COVIC-262 (antibody, V domains shown)
VH: QVQLVQSGAEVKKPGSSVKVSCKASGGTSSSYAISWVRQAPGQGLEWIGGIIPIFDTTKYAQKFQGRVTITADESTNTAYMEVSSLRSEDTAVYYCAKVADRVGASTGELDYWGQGTLVTVSS
VL: EVVLTQSPATLSLSPGERGTLSCRASQSISNYLAWYQQKPGQAPRLLIYNASNRATGVPARFSGSGSGTDFTLTISSLEPEDFAVYYCQQRSNWPPWTFGQGTKVEIKR
B4: COVIC-238 (antibody, V domains shown)
VH: QVQLVQSGSELKKPGASVKVSCKASGYTFTTYVMNWVRQAPGQGLEWMGWINTNTGNPTYAQGFTGRFVFSLDTSVSTASLQISSLKAEDTAVYYCSSEITTLGGMDVWGQGTTVTVSS
VL: ASYVLTQPPSVSVAPGKTARITCGGNNIGSKSVHWYQQKPGQAPVLVIYYDSDRPSGIPERFSGSNSGNTATLTISGVEAGDEADYYCQVWDSISDHRVFGGGTKLTVLG
B5: COVIC-336 (antibody, V domains shown)
VH: QITLKESGPTLVKPTQTLTLTCTFSGFSLSSGGVGVGWIRQPPGKALEWLALIYWDDDKRYRPSLKSRLTITRDTSTNQVVLTMTNMDPVDTATYFCARHQIATVFDHWGQGTLVTVSS
VL: QSALTQPASVSGSPGQSITISCTGTSSDVGGYNYVSWYQQHPGKAPKLMIYEVSNRPSGVSSRFSGSKSGNTASLTISGLQAEDEADYYCSSYTRSSPLVAFGGGTKVTVL
B6: COVIC-136 (antibody, V domains shown)
VH: EVQLLESGGGLIQPGGSLRLSCAASGFTVSSNYMSWVRQAPGKGLEWVSVIYSGGSTYYADSVKGRFTISRDNSKNTLYLQMNSLRAEDTAVYYCARDHVRPGMNIWGQGTMVTVSS
VL: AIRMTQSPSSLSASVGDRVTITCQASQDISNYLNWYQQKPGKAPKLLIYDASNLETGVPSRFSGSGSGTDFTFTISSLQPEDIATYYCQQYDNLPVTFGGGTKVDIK
B7: COVIC-393 (antibody, V domains shown)
VH: EVQLVQSGGGLVQPGGSLKLSCAASGFTFSGSAMHWVRQASGKGLEWVGHIRSKANSYATAYAASVKGRFTISRDDSKNTAYLQMNSLNTEDTAVYYCTREDIVGVPVAKDWFDPWGQGTLVTVSS
VL: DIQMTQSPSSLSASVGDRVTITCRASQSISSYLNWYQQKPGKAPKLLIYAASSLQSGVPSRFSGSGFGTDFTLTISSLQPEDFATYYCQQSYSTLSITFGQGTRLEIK
B8: COVIC-292 (antibody, V domains shown)
VH: QMQLVQSGPEVKKPGTSVKVSCKASGFTFSGSAVQWVRQARGQRLEWIGWIVVGSGNTNYAQRFQERVTITRDMSTSTAYMELSSLRSEDTAVYYCAAPYCSSTSCRDGFDIWGQGTMVTVSS
VL: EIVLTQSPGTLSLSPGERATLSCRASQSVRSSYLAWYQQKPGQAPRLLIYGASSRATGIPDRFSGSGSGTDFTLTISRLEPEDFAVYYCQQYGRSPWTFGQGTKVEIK
B9: COVIC-63 (antibody)
chain: QVQLQESGGGLVQAGGSLRLSCAASGRTFSEYAMGWFRQAPGKEREFVATISWSGGSTYYTDSVKGRFTISRDNAKNTVYLQMNSLKPDDTAVYYCAAAGLGTVVSEWDYDYDYWGQGTQVTVSSGGSGGSQVQLQESGGGLVQAGGSLRLSCAASGRTFSEYAMGWFRQAPGKEREFVATISWSGGSTYYTDSVKGRFTISRDNAKNTVYLQMNSLKPDDTAVYYCAAAGLGTVVSEWDYDYDYWGQGTQVTVSSGGGGSGGGGSEPKSCDKTHTCPPCPAPELLGGKKKPLDGEYFTLQIRGRERFEMFRELNEALELKDAQAGKEPG
B10: COVIC-156 (antibody, V domains shown)
VH: EVQLVESGGGLIQPGGSLRLSCAASGVTVSSNYMNWVRQAPGKGLEWVSVIYSGGSTYYADSVKGRFTISRDNSKNTLFLQMNSLRAEDSAVYYCARDLGPYGVDVWGQGTTVTVSS
VL: DIQLTQSPSFLSASVGDRVTITCWASQGISSYLAWYQQKPGKAPKLLIYAASTLQSGVPSRFSGSGSGTEFTLTISSLQPEDFATYYCQELNSYPLTFGQGTRLEIKR
B11: COVIC-392 (antibody, V domains shown)
VH: QVQLLESGGGLVQPGRSLRLSCAASGFTFDDYAMHWVRQPPGKGLEWVSGSSWNSGSVVYADSVKGRFTISRDSAKNSLHLQMNSLRVEDTALYYCAKAVDPTRGSYSPDYGFDIWGQGTMVTVS
VL: not shown
B12: COVIC-369 (antibody, V domains shown)
VH: EVRLVESGGGLIQPGGSLTLSCAASGVIVSRNYMNWVRQAPGKGLEWVSVIYSGGSTFYADSVKGRFTISRDNSKNTLYLQMNSLRAEDTAVYYCARWGPNYYGSGSDHYNSYGMDVWGQGTTVTVSS
VL: EIVLTQSPGTLSLSPGESATLSCRASQGVSSSSLAWYQQRPGQAPRLLMYGASSRATGIPDRFSGSGSGTDFTLTISRLEPEDFAVYYCQQSGSSPQYTFGQGTKLEIKR
B13: COVIC-296 (antibody, V domains shown)
VH: EVQLVESGGGLVQPGGSLRLSCAASGITVSSNYMNWVRQAPGKGLEWVSVIYSGGSTFYADSVKGRFTVSRHNSKNTLYLQMNSLRVEDTAVYYCAREGLVGTALAFDYWGQGNLVTVSS
VL: DIQMTQSPSSLSASVGDRVTITCRASQSINNYLNWYQQKPGKAPNLLIYAASSLQSGVPSRFSGSGSGTDFTLTINSLQPEDFATYYCQQSYSTPPYTFGQGTKLEIK
B14: COVIC-170 (antibody, V domains shown)
VH: EVQLVQSGAEVKKPGESLKISCKGSGYSFTSYWIGWVRQMPGKGLEWMGIIYPGDSDTRYSPSFQGQVTISADKSISTAYLQWSSLKASDTAMYYCVRSYNWNYFDYWGQGTLVTVSS
VL: AIQLTQSPSSLSASVGDRVTITCRASQGISSGLAWYQQKAGKAPKLLIYDVSSLESGVPSRFSGSGSGTDFTLTISSLQPEDFATYYCQQFLSYPWTFGQGTKVEIKR
B15: COVIC-317 (antibody)
chain: EVQLLESGGGLVQPGGSLRLSCAASGRTFSEYAMGWFRQAPGKGLEFVSTISWSGGSTYYADSVKGRFTISRDNSKNTLYLQMNSLRAEDTAVYYCAAAGLGTVVSEWDYDYDYWGQGTLVTVSSGGGGSGGGGSASTKGPSVFPLAPSSKSTSGGTAALGCLVKDYFPEPVTVSWNSGALTSGVHTFPAVLQSSGLYSLSSVVTVPSSSLGTQTYICNVNHKPSNTKVDKKVEPKSCDKTHTAPELLGGPSVFLFPPKPKDTLMISRTPEVTCVVVDVSHEDPEVKFNWYVDGVEVHNAKTKPREEQYNSTYRVVSVLTVLHQDWLNGKEYKCKVSNKALPAPIEKTISKAKGQPREPQVYTLPPSRDELTKNQVSLTCLVKGFYPSDIAVEWESNGQPENNYKTTPPVLDSDGSFFLYSKLTVDKSRWQQGNVFSCSVMHEALHNHYTQKSLSLSPGKKKKPLDGEYFTLQIRGRERFEMFRELNEALELKDAQAGKEPGGGGGSGGGGSEVQLLESGGGLVQPGGSLRLSCAASGRTFSEYAMGWFRQAPGKGLEFVSTISWSGGSTYYADSVKGRFTISRDNSKNTLYLQMNSLRAEDTAVYYCAAAGLGTVVSEWDYDYDYWGQGTLVTVSS
B16: COVIC-322 (antibody)
chain 1: EVQLLESGGGLVQPGGSLRLSCAASGRTFSEYAMGWFRQAPGKGLEFVSTISWSGGSTYYADSVKGRFTISRDNSKNTLYLQMNSLRAEDTAVYYCAAAGLGTVVSEWDYDYDYWGQGTLVTVSSGGGGSGGGGSASTKGPSVFPLAPSSKSTSGGTAALGCLVKDYFPEPVTVSWNSGALTSGVHTFPAVLQSSGLYSLSSVVTVPSSSLGTQTYICNVNHKPSNTKVDKKVEPKSCDKTHTAPELLGGPSVFLFPPKPKDTLMISRTPEVTCVVVDVSHEDPEVKFNWYVDGVEVHNAKTKPREEQYNSTYRVVSVLTVLHQDWLNGKEYKCKVSNKALPAPIEKTISKAKGQPREPQVYTLPPSRDELTKNQVSLTCLVKGFYPSDIAVEWESNGQPENNYKTTPPVLDSDGSFFLYSKLTVDKSRWQQGNVFSCSVMHEALHNHYTQKSLSLSPGKKKKPLDGEYFTLQIRGRERFEMFRELNEALELKDAQAGKEPG
chain 2: EVQLLESGGGLVQPGGSLRLSCAASGRTFSEYAMGWFRQAPGKGLEFVSTISWSGGSTYYADSVKGRFTISRDNSKNTLYLQMNSLRAEDTAVYYCAAAGLGTVVSEWDYDYDYWGQGTLVTVSSGGGGSGGGGSKRTVAAPSVFIFPPSDEQLKSGTASVVCLLNNFYPREAKVQWKVDNALQSGNSQESVTEQDSKDSTYSLSSTLTLSKADYEKHKVYACEVTHQGLSSPVTKSFNRGEC
B17: COVIC-162 (antibody, V domains shown)
VH: QLQLQESGPGLVKPSETLSLTCTVSGGSISNSNYYWGWIRQPPGKGLEWIGSIYYSGRTYYNPSLKSRVTISVDTSKNQFSLKLSSVTAADTAVYYCARMGLLWFGEFYGMDVWGQGTTVTVSS
VL: DIQMTQSPSSLSASVGDRVTITCRASQGISSWLAWYQQKPEKAPKSLIYDASSLQRGVPSRFSGSGSGTDFTLTISSLQPEDFASYYCQQYNSYPLTFGGGTRVEIKR
B18: COVIC-293 (antibody, V domains shown)
VH: QVTLRESGPALVKPTQTLTLTCTFSGFSLSTSGMCVSWIRQPPGKALQWLARIDWDDDKYYSTSLKTRLTISKDTSKNQVVLTVTNVDPVDTGTYYCARVQVAAAGSPYDYWGQGTLVTVSS
VL: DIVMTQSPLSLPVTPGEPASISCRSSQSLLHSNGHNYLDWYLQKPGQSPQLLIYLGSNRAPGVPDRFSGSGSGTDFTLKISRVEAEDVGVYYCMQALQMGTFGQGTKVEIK
B19: COVIC-294 (antibody, V domains shown)
VH: EVQLVESGGGLVQPGGSLRLSCAASGITVSSNYMNWVRQAPGKGLEWVSVIYSGGSTFYADSVKGRFTIARDNSKNTLYLQMNSLRAEDTAVYYCAREGLLVGPTGRGLGMDVWGQGTTVTVSS
VL: DIQMTQSPSSLSASVGDRVTITCQASQDINNYLNWYQQKPGKAPKLLIYDASNLQTGVPSRFSGSGSGTDFTFTISSLQPEDIATYYCQQYADLPYTFGQGTKLQIK
B20: COVIC-305 (antibody, V domains shown)
VH: QVQLVQSGAEVKKPGSSVRVSCKVSGYTFTGYYMHWVRQAPGQGLEWMGIINPSGGSTSYAQKFQGRVTMTRDTSTSTVYMELSSLRSEDTAVYYCARVRVGASDAFDIWGQGTMVTVSS
VL: SYVLTQPPSVSVAPGQTARITCGGNNIGSKSVHWYQQKPGQAPVLVVYDDSDRPSGIPERFSGSNSGNTATLIISRVEAGDEADYYCQVWDSSSVHYVFGTGTKLTVLG

The assay addresses SARS-CoV-2 spike RBD (Wuhan-Hu-1) (Severe acute respiratory syndrome …, UniProt P0DTC2). Briefly: SPR.
The Kd is the concentration at which binding is half-saturated. A lower Kd goes with higher affinity. In turn, B1 showed a Kd of 1.55 nM. This counts as single-digit nanomolar. With B2 the figure was 1.76 nM; with B3, 4.67 nM. As for B4, binding was put at a Kd of 0.873 nM.

B5 registered a Kd of 2.14 nM. With B6 the figure was 9.86 nM. With B7 the figure was 0.233 nM; with B8, 6.71 nM; with B9, 185 nM. In turn, B10 had a Kd of 0.446 nM. As for B11, the equilibrium dissociation constant (Kd) was 0.0871 nM. In the case of B12, the Kd came to 0.209 nM. In turn, B13 gave a Kd of 0.501 nM.

Consider B14, for which binding was put at a Kd of 1.16 nM. With B15 the figure was 41.3 nM; with B16, 30.2 nM; with B17, 191 nM. Turning to B18, the dissociation constant (Kd) is 0.429 nM. In the case of B19, binding was put at a Kd of 0.0593 nM. With B20, the Kd came to 7.27 nM.
